Experimental data: patent US20040014939

Test system: T1, synthetic substrate Mcc-Pro-Leu-Gly-Pro-D-Lys(DNP)-OH
T1 sequence: PLGPK

Substance: luciferase as a fusion protein with 6×His tag
- enzyme activity (fluorescence intensity, excitation 345±10 nm, emission 425±10 nm, 37° C. for 1 h): the enzyme activity was not detected in the water-soluble fraction in the case of a control in which luciferase gene was introduced into the similar expression vector
